Assay results: PMC12784961, “Structure of Bacillus subtilis Ku-mediated DNA synaptic complex”
Substitutions are numbered along the chain they refer to.

What was measured:
[1] = target: T1, bsKu core L30G (Bacillus subtilis, UniProt O34859 18-244, L30G); assay: EMSA; no significant loss of binding; EMSA: 20 mM HEPES pH 7.5, 150 mM KCl, 1 mM DTT, 50 nM DNA, 30 min at 4°C, 15% native PAGE in 0.5x TBE, SYBR Gold; SEC: same buffer, protein:DNA 1:2, 1 h at 4°C, Superdex 75; conditions: protein: recombinant; tags: N-terminal 8xHis-MBP, cleaved; chain copies: 2; blunt
T1 sequence: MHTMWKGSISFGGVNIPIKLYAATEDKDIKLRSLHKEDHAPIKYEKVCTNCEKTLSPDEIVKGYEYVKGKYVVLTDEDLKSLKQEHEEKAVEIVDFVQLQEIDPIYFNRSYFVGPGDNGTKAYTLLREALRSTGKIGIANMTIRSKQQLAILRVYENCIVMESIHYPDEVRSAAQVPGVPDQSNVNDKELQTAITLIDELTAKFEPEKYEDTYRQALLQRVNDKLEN

[2] = target: T2, bsKu core N32E (Bacillus subtilis, UniProt O34859 18-244, N32E); assay: as above; conditions: protein: recombinant; tags: N-terminal 8xHis-MBP, cleaved; chain copies: 2; blunt
T2 sequence: T1 sequence with G13L, N15E

B1: 13-bp DNA (dsDNA)
DNA 1: GTACCTGTAGAAG
DNA 2: CTTCTACAGGTAC
B1: binds [1]; binds [2].
